Laboratory results published in patent publication EP4736885A1 (CSPC Megalith Biopharmaceutical Co., Ltd., dated 2025).
Residue numbers refer to the chain shown, from its start.

T1: B7H3 on B7H3-positive human melanoma A375 cells (human, UniProt Q5ZPR3 29-534)
T1 construct: whole, on cells; Endogenous B7H3 on A375 cells; also called B7H3-positive A375 cells
T1 sequence (looked up): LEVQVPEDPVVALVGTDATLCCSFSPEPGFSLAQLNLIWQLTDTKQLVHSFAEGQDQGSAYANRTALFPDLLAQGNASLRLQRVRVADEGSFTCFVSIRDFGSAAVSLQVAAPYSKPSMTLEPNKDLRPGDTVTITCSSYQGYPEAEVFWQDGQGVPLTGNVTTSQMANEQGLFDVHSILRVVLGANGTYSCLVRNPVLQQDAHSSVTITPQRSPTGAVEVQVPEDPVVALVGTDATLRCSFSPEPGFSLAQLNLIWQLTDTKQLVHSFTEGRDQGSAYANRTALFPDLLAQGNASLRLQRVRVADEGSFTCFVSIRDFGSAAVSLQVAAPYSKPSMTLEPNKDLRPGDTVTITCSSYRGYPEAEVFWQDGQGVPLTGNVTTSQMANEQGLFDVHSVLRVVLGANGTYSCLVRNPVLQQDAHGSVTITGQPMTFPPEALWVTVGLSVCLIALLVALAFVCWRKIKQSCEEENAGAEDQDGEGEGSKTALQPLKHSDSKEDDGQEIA

T2: His-tagged human B7H3 protein (purchased from Beijing ACROBiosystems Co., Ltd.) (human, UniProt Q5ZPR3-2 29-245, limits assumed)
T2 construct: not shown: His tag
T2 sequence (looked up): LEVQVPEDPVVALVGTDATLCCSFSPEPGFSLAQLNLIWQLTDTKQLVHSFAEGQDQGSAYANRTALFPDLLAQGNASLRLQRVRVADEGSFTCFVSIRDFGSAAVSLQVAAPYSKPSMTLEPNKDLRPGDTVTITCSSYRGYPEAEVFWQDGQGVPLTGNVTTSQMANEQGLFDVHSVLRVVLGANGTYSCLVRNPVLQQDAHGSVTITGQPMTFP

B1: M30 antibody (CN103687945B) (antibody, human IgG1, kappa, V domains shown)
VH: QVQLVQSGAEVKKPGSSVKVSCKASGYTFTNYVMHWVRQAPGQGLEWMGYINPYNDDVKYNEKFKGRVTITADESTSTAYMELSSLRSEDTAVYYCARWGYYGSPLYYFDYWGQGTLVTVSS
VL: EIVLTQSPATLSLSPGERATLSCRASSRLIYMHWYQQKPGQAPRPLIYATSNLASGIPARFSGSGSGTDFTLTISSLEPEDFAVYYCQQWNSNPPTFGQGTKVEIKR
notes: also called M30-H1/M30-L4
B2: antibody-drug conjugate 43B-045-6 (antibody, human IgG1, kappa, L234A L235A)
heavy: QVQLVQSGAEVKKPGASVKVSCKASGYTFTDYFMNWVRQAPGQGLEWMGDVNPKTGSPSYNQKFKGRVTMTRDTSTSTVYMELSSLRSEDTAVYYCARRYGFLYSMDYWGQGTSVTVSSASTKGPSVFPLAPSSKSTSGGTAALGCLVKDYFPEPVTVSWNSGALTSGVHTFPAVLQSSGLYSLSSVVTVPSSSLGTQTYICNVNHKPSNTKVDKRVEPKSCDKTHTSPPCPAPEAAGGPSVFLFPPKPKDTLMISRTPEVTCVVVDVSHEDPEVKFNWYVDGVEVHNAKTKPREEQYNSTYRVVSVLTVLHQDWLNGKEYKCKVSNKALAASIEKTISKAKGQPREPQVYTLPPSREEMTKNQVSLTCLVKGFYPSDIAVEWESNGQPENNYKTTPPVLDSDGSFFLYSKLTVDKSRWQQGNVFSCSVMHEALHNHYTQKSLSLSPGK
light: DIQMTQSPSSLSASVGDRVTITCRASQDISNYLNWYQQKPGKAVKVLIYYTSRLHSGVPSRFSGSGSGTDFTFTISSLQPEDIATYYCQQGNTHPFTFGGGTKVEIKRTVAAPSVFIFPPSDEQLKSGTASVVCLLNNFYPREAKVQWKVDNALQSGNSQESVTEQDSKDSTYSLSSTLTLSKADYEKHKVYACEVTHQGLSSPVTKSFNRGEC
modifications: linker-drug compound 045 (exatecan) on thiols of reduced interchain cysteines; DAR of the whole conjugate 5.7
B3: anti-B7H3 antibody 43A (antibody, human IgG1, kappa, L234A L235A)
heavy: B2 heavy with S228C
light: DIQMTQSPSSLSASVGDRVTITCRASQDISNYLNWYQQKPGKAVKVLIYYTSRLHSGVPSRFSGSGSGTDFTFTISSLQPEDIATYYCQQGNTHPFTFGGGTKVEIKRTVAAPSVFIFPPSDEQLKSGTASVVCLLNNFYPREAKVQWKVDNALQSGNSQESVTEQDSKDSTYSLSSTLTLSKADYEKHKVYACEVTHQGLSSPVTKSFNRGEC
notes: 2 identical heavy chains and 2 identical light chains
B4: anti-B7H3 antibody 43B (antibody, human IgG1, kappa, L234A L235A)
heavy: B2 heavy
light: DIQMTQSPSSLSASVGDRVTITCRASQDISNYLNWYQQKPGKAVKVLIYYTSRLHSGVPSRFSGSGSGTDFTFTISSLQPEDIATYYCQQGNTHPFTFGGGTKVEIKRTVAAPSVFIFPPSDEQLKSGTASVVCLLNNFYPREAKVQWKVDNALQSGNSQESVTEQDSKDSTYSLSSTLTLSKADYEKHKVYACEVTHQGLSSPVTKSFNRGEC
notes: as for B3
B5: antibody-drug conjugate 43A-043 (antibody, human IgG1, kappa, L234A L235A)
heavy: B2 heavy with S228C
light: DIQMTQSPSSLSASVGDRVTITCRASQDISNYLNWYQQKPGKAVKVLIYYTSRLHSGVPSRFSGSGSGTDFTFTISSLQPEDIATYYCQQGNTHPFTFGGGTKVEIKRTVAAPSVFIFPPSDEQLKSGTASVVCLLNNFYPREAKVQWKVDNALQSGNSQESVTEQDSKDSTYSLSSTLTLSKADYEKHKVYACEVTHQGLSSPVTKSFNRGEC
modifications: linker-drug compound B_3 (exatecan) on thiols of reduced interchain cysteines; DAR of the whole conjugate 7.8
B6: antibody-drug conjugate 43A-042 (antibody, human IgG1, kappa, L234A L235A)
heavy: B2 heavy with S228C
light: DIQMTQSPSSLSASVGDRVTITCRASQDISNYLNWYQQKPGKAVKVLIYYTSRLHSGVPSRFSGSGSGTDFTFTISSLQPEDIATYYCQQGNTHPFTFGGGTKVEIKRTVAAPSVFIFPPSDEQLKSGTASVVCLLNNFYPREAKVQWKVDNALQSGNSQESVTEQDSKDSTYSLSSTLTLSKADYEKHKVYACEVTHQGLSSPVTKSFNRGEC
modifications: linker-drug compound A_10 (exatecan) on thiols of reduced interchain cysteines; DAR of the whole conjugate 7.6
B7: antibody-drug conjugate 43A-DXd (antibody, human IgG1, kappa, L234A L235A)
heavy: B2 heavy with S228C
light: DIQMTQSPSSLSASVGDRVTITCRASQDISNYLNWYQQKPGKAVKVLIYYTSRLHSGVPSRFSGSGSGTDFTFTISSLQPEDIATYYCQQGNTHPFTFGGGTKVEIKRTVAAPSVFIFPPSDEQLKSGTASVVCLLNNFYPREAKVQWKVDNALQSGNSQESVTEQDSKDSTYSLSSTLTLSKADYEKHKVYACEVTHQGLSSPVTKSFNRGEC
modifications: deruxtecan linker-drug on thiols of reduced interchain cysteines; DAR of the whole conjugate 7.4
B8: antibody-drug conjugate 43B-043 (antibody, human IgG1, kappa, L234A L235A)
heavy: B2 heavy
light: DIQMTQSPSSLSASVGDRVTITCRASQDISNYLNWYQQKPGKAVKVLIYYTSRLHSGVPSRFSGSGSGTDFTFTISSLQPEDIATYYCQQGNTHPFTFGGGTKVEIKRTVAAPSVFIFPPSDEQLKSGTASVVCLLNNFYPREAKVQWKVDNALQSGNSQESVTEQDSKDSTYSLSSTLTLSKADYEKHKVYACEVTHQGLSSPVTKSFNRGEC
modifications: linker-drug compound B_3 (exatecan) on thiols of reduced interchain cysteines; DAR of the whole conjugate 5.9
B9: antibody-drug conjugate 43B-042 (antibody, human IgG1, kappa, L234A L235A)
heavy: B2 heavy
light: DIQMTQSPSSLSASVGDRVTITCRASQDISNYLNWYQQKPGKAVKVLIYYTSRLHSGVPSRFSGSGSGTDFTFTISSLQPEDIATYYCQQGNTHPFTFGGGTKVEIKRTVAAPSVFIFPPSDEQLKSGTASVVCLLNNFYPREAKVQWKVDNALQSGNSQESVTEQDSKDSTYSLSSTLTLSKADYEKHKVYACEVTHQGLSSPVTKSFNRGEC
modifications: linker-drug compound A_10 (exatecan) on thiols of reduced interchain cysteines; DAR of the whole conjugate 5.9

Target: T1, B7H3 on B7H3-positive human melanoma …
Assay: flow cytometry on B7H3-positive A375 cells, MFI

EC50	Binder
125 ng/mL	B1
37.8 ng/mL	B2
54.5 ng/mL	B3
61.2 ng/mL	B4

Target: T2, His-tagged human B7H3 protein …
Assay: ELISA, His-tagged human B7H3 coated on plate, anti-human IgG-HRP

EC50	Binder
1.09 ng/mL	B5
1.17 ng/mL	B6
1.19 ng/mL	B7
1.02 ng/mL	B3
1.05 ng/mL	B8
1.05 ng/mL	B4
1.16 ng/mL	B9
